Results on four substances are retold here after paper PMC6173970.

In this assay the target is F-actin (actin purified from chicken breast, polymerized and phalloidin-stabilized) (chicken) (UniProt P68139). As to the kind of experiment: co-sedimentation.

Turning to “6xHis-FLNaABD-A128V (from UniProt P21333 1-278) (domain or fragment)”, the stoichiometry N turned out to be 1.
The figure for “6xHis-FLNaABD-E254K (domain or fragment)” is 1; for “6xHis-FLNaABD-Q170P (from UniProt P21333 1-278) (domain or fragment)” it is 1.
The figure for “6xHis-FLNaABD-wt (human filamin A actin-binding domain, wild type) (from UniProt P21333 1-278) (domain or fragment)” is 1.
